# Laboratory results published in article PMC8092277, “Cytoplasmic CPSF6 Regulates HIV-1 Capsid Trafficking and Infection in a Cyclophilin A-Dependent Manner” (mBio, 2021).
# B1: MBP-His6-CPSF6-588 (natural protein, UniProt Q16630-2 1-588, looked up)
# chain: MADGVDHIDIYADVGEEFNQEAEYGGHDQIDLYDDVISPSANNGDAPEDRDYMDTLPPTVGDDVGKGAAPNVVYTYTGKRIALYIGNLTWWTTDEDLTEAVHSLGVNDILEIKFFENRANGQSKGFALVGVGSEASSKKLMDLLPKRELHGQNPVVTPCNKQFLSQFEMQSRKTTQSGQMSGEGKAGPPGGSSRAAFPQGGRGRGRFPGAVPGGDRFPGPAGPGGPPPPFPGNLIKHLVKGTRPLFLETRIPWHMGHSIEEIPIFGLKAGQTPPRPPLGPPGPPGPPGPPPPGQVLPPPLAGPPNRGDRPPPPVLFPGQPFGQPPLGPLPPGPPPPVPGYGPPPGPPPPQQGPPPPPGPFPPRPPGPLGPPLTLAPPPHLPGPPPGAPPPAPHVNPAFFPPPTNSGMPTSDSRGPPPTDPYGRPPPYDRGDYGPPGREMDTARTPLSEAEFEEIMNRNRAISSSAISRAVSDASAGDYGSAIETLVTAISLIKQSKVSADDRCKVLISSLQDCLHGIESKSYGSGSRRERSRERDHSRSREKSRRHKSRSRDRHDDYYRERSRERERHRDRDRDRDRERDREREYRHR
# notes: cleavage and polyadenylation specificity factor 6 (CPSF6), the isoform of 588 residues, full length; Order: MBP, His6, CPSF6; An HRV-3C site allows removal of MBP, but the cleaved protein precipitated, so the tagged protein was used; Size exclusion gave two peaks of the same construct, P1 and P2, which are kept here as one molecule; also called MBP-CPSF6; full-length CPSF6; source: Expi 293F …
# Biological target: the molecule itself
# Experiment: negative-stain TEM; MBP-CPSF6 P1 or P2 alone, incubated in CA assembly buffer
protein,measurement,value
B1,binding result,binds
